Reference: article doi:10.1101/2025.01.11.632520, “A De Novo Design Strategy to Convert FAcD from Dimer to Active Monomer” (bioRxiv, 2025)

Target: the molecule itself
Assay: native MS; proteins buffer-exchanged into 0.2 M ammonium acetate (pH 7); Q-Exactive Plus Orbitrap, collision voltage 20 V; room temperature; self-association (dimer vs monomer)

B1: Fluoroacetate dehalogenase (FAcD), wild-type (enzyme, UniProt Q6NAM1 1-302, looked up)
chain: MPDLADLFPGFGSEWINTSSGRIFARVGGDGPPLLLLHGFPQTHVMWHRVAPKLAERFKVIVADLPGYGWSDMPESDEQHTPYTKRAMAKQLIEAMEQLGHVHFALAGHDRGARVSYRLALDSPGRLSKLAVLDILPTYEYWQRMNRAYALKIYHWSFLAQPAPLPENLLGGDPDFYVKAKLASWTRAGDLSAFDPRAVEHYRIAFADPMRRHVMCEDYRAGAYADFEHDKIDVEAGNKIPVPMLALWGASGIAQSAATPLDVWRKWASDVQGAPIESGHFLPEEAPDQTAEALVRFFSAAP
notes: Fluoroacetate dehalogenase (FAcD), gene Rpa1163, residues 1-302; His6-SUMO tag cleaved off by ULP1; Homodimer by native MS; also called WT; WT-Di; source: E. coli BL21(DE3), purified (nickel column, SEC); not shown: His6, N-terminal, cleaved; SUMO, N-terminal, cleaved
stoichiometry N: 2
